Legend:
Assay type in all cases: in vivo, mouse
[1] = system: granule cell layer of the dentate gyrus; test: Histology of labeled proliferating cells (EdU, Ki67, BrdU/DCX) in the dentate gyrus of young mice; conditions: for number of Ki67-labeled cells within the granule cell layer of the dentate gyrus: study week 6; for number of BrdU and DCX co-labeled cells within the granule cell layer of the dentate gyrus: BrdU in week 4
Experimental: (§1) Brains were collected following saline perfusion and separated by mid-sagittal slice with one-half drop fixed in freshly prepared 4% PFA. PFA was changed to 30% sucrose 24-48 hours later. A second change to 30% sucrose occurred 24 hours later. The second half was dissected into hippocampus and cortex and then snap frozen on dry ice.
(§2) Brain tissue was sectioned or lysed and analyzed for markers of neurogenesis and aging by standard histological and biochemical methods, including qRT-PCR, Western blot, ELISA, and immunohistochemistry.
(§3) Young, 8-week old wild-type (WT; C57BL/6) mice were homogenized between groups by body weight. Following group determination, mice were injected intraperitoneally (IP) with BrdU (5-bromo-2′-deoxyuridine) formulated in PBS (phosphate buffered saline) at a final concentration of 10 mg/mL dosed at 150 mg/kg for 5 days Immediately following the BrdU dosing, group 1 was injected intravenously (IV) with PBS control and group 2 with recombinant human LTA4H protein daily for 7 consecutive days. One week after the completion of LTA4H administration, in week 3, mice in both treatment groups were injected IP with EdU (5-ethynyl-2′-deoxyuridine) formulated in PBS at a final concentration of 10 mg/mL and dosed at 50 mg/kg for 5 days. Behavioral assays were executed in week 5 and 6, and animals were sacrificed, and tissues collected immediately after completion of behavior testing in week 6. FIG. 3 depicts the treatment paradigm and injection timing for the study.
(§4) The initial study in young, 8-week old wild-type (WT; C57BL/6) mice was repeated in a second cohort of mice with additional timepoints and readouts. Mice were homogenized between 3 treatment groups by body weight. Group 1 (Vehicle) was injected intravenously (IV) with PBS control 3 times per week for 6 weeks, group 2 (LTA4H Pulse) with recombinant human LTA4H protein daily for 7 consecutive days, and group 3 (LTA4H Continuous) with recombinant human LTA4H protein 3 times per week for 6 weeks. In week 4 after the initiation of dosing, mice in all treatment groups were injected IP with BrdU (5-bromo-2′-deoxyuridine) formulated in PBS (phosphate buffered saline) at a final concentration of 10 mg/mL dosed at 150 mg/kg for 5 days. Behavioral assays were executed in week 5 and 6, and animals were sacrificed, and tissues collected immediately after completion of behavior testing in week 6. FIG. 10 depicts the treatment paradigm and injection timing for the study.

[2] = system: 8-week old (young) wild-type (C57BL/6) mice; test: Open field test in young mice treated with recombinant human LTA4H protein
Experimental: The open field test was used to evaluate general locomotor activity and exploratory behavior in a novel environment. It consisted of a square arena (50 cm×50 cm). Mice were brought to the experimental room for at least 30 min of acclimation to the experimental room conditions (dim lighting) prior to testing. Mice were placed in the center of the arena and tracked using automated software (CleverSys or San Diego Instruments) for 15 min. Total distance traveled, average velocity, and time spent in the peripheral and center zones were analyzed.
Recombinant human LTA4H (Bio-techne, 4008-SN) was buffer-exchanged into sterile PBS and dosed at 4.6 ug/150 uL by tail vein i.v. injection. SC-57461A (Cayman Chemical, 423169-68) stock solution was prepared at 10 mg/mL in DMSO. Stock solution was diluted into sterile PBS immediately prior to p.o. dosing to a final concentration of 10% DMSO and 1 mg/mL SC-57461A. Mice were p.o. dosed at 5 mg/kg. CP-105,696 (Sigma, PZ0363), Pinostilbene hydrate (Sigma, SML0098), and Montelukast (Cayman Chemical, 10008318) stock solutions were prepared at 30 mg/mL in EtOH/Solutol. Stock solutions were diluted into sterile PBS immediately prior to p.o. dosing to a final concentration of 10% EtOH and […] inhibitor. Administration to mice was performed p.o. at a dose of 10 mg/kg. Vehicle was 10% EtOH/Solutol and was dosed p.o. at a volume of 150 uL.
as §3, §4

[3] = system: microglia in the hippocampus; test: Histology of microglia markers (Iba1, CD68) in the hippocampus of young mice
Experimental: as §1, §2
as §4, with “Behavioral assays were executed in week 5 and 6, and animals were sacrificed, and tissues collected immediately after completion of behavior testing in week 6. FIG. 10 depicts the treatment paradigm and injection timing for the study.” left out

[4] = paradigm 1: IV daily for 7 consecutive days, vs PBS, tested week 5-6
[5] = paradigm 2: continuous dosing, IV 3 times per week for 6 weeks

B1: recombinant human LTA4H: Recombinant human LTA4H (Bio-techne, 4008-SN), leukotriene A4 hydrolase enzyme, dosed by tail vein i.v. injection (protein, UniProt P09960 2-611, looked up)
Leukotriene A-4 hydrolase: PEIVDTCSLASPASVCRTKHLHLRCSVDFTRRTLTGTAALTVQSQEDNLRSLVLDTKDLTIEKVVINGQEVKYALGERQSYKGSPMEISLPIALSKNQEIVIEISFETSPKSSALQWLTPEQTSGKEHPYLFSQCQAIHCRAILPCQDTPSVKLTYTAEVSVPKELVALMSAIRDGETPDPEDPSRKIYKFIQKVPIPCYLIALVVGALESRQIGPRTLVWSEKEQVEKSAYEFSETESMLKIAEDLGGPYVWGQYDLLVLPPSFPYGGMENPCLTFVTPTLLAGDKSLSNVIAHEISHSWTGNLVTNKTWDHFWLNEGHTVYLERHICGRLFGEKFRHFNALGGWGELQNSVKTFGETHPFTKLVVDLTDIDPDVAYSSVPYEKGFALLFYLEQLLGGPEIFLGFLKAYVEKFSYKSITTDDWKDFLYSYFKDKVDVLNQVDWNAWLYSPGLPPIKPNYDMTLTNACIALSQRWITAKEDDLNSFNATDLKDLSSHQLNEFLAQTLQRAPLPLGHIKRMQEVYNFNAINNSEIRFRWLRLCIQSKWEDAIPLALKMATEQGRMKFTRPLFKDLAAFDKSHDQAVRTYQEHKASMHPVTAMLVGKDLKVD
number of EdU-labeled cells within the granule cell layer of the dentate gyrus ([1]; paradigm 1, EdU in week 3, vs PBS): significant decrease
number of Ki67-labeled cells within the granule cell layer of the dentate gyrus ([1]; paradigm 1, vs PBS, listed as human recombinant LTA4H protein): significant decrease
number of Ki67-labeled cells within the granule cell layer of the dentate gyrus ([1]; paradigm 1, vs PBS, listed as recombinant LTA4H): fewer Ki67 labeled cells
number of BrdU and DCX co-labeled cells within the granule cell layer of the dentate gyrus ([1]; paradigm 2: continuous dosing): significant decrease
number of BrdU and DCX co-labeled cells within the granule cell layer of the dentate gyrus ([1]; paradigm 2: pulse dosing): statistical trend towards a decrease
anxiety as measured by percent time spent in periphery or center of the open field ([2]; paradigm 1: IV daily for 7 consecutive days, vs PBS): not affected
average velocity in open field [2, 4]: no change
total distance travelled in open field [2, 4]: no change
average velocity in open field [2, 5]: significant reduction
distance traveled in open field [2, 5]: significant reduction
anxiety as measured by percent time spent in periphery or center of the open field ([2]; paradigm 2: either dosing paradigm (pulse or continuous)): not affected
general locomotion as measured by total distance travelled and average velocity ([2]; paradigm 2: pulse dosing, IV daily for 7 consecutive days): impaired with continuous dosing of LTA4H, but not with pulse dosing
average number of Iba1-labeled cells in the hippocampus ([3]; paradigm 2: pulse dosing, relative to vehicle PBS): significant increase
average number of CD68-labeled cells in the hippocampus ([3]; paradigm 3: 10 days following pulse dosing (IV daily, 7 days), relative to PBS): significant increase

Source: patent publication US11344542B2, “Treatment of aging-associated disease with modulators of leukotriene A4 hydrolase” (Alkahest, Inc., priority 2018, dated 2022)
